{"source": "patent US20100298348A1", "about": "“Method of Decreasing Ubiquitylated Protein Levels” (priority 2009, published 2010)", "origin": "cited, not measured here", "key": {"gamma secretase": {"test_system": "gamma secretase", "conditions": "in vivo; cited from earlier work"}, "mouse model of AD": {"test_system": "mouse model of AD", "conditions": "cited from earlier work"}, "hippocampal slices": {"test_system": "hippocampal slices", "conditions": "cited from earlier work"}}}
{"molecule": "C[C@@H](C(=O)O)c1ccc(-c2ccccc2)c(F)c1", "note": "[Flurizan]", "values": [{"measurement": "outcome of Phase III clinical trial", "setting": "gamma secretase", "value": "failed"}]}
{"molecule": "Uch-L1: ubiquitin hydrolase (protein, UniProt P09936 1-220, looked up) Ubiquitin carboxyl-terminal …: MQLKPMEINPEMLNKVLSRLGVAGQWRFVDVLGLEEESLGSVPAPACALLLLFPLTAQHENFRKKQIEELKGQEVSPKVYFMKQTIGNSCGTIGLIHAVANNQDKLGFEDGSVLKQFLSETEKMSPEDRAKCFEKNEAIQAAHDAVAQEGQCRVDDKVNFHFILFNNVDGHLYELDGRMPFPVNHGASSEDTLLKDAAKVCREFTEREQGEVRFSAVALC", "values": [{"measurement": "learning and memory", "setting": "mouse model of AD", "value": "improves"}, {"measurement": "Aβ-induced decrease in synaptic function", "setting": "hippocampal slices", "value": "reverses"}]}
